Among the data in publication PMC5771576 are pKa values, retold here.

For series [1], the target named is T1, Cys14 (UniProt position 14, AANWKCNGSQQ). The following applies: cited from earlier work.
Series [2] concerns the target T1, Cys14. Briefly: chemical modification. The note with it: not stated for the 1 min MMTS incubation (activity assay at 25°C); 100 mM TEA, 10 mM EDTA; ligand-free folded enzyme, 250 ug/mL.
For series [3], the target named is T2, Cys14 (UniProt position 15, AANWKCNGSES). The note with it: cited from earlier work.
In series [4] the target is T2, Cys14. Briefly: chemical modification. The note with it: not stated for the 1 min MMTS incubation (activity assay at 25°C); 100 mM TEA, 10 mM EDTA; ligand-free folded enzyme, 250 ug/mL.

Read-outs that look alike come from different tables or passages of the source.

Turning to “Triosephosphate isomerase (WT TbTIM) (Trypanosoma brucei)”, the results for the pKa in series [1] and in series [2] were 10.53 and 10.56 ± 0.22, respectively. Regarding “Triosephosphate isomerase triple mutant TbTIM: F28L, A100L, A115Q (Trypanosoma brucei; F28L;A100L;A115Q)”, the pKa in series [2] is recorded as 9.23 ± 0.03. With “Triosephosphate isomerase (WT TcTIM) (Trypanosoma cruzi)”, the figures for the pKa in series [3] and in series [4] were 9.27 and 9.24 ± 0.04, respectively. The substance “Triosephosphate isomerase triple mutant TcTIM: L28F, L100A, Q115A (Trypanosoma cruzi; L28F;L100A;Q115A)” yielded a pKa in series [4] of 10.69 ± 0.01.
